Source: patent US20240010687A1 (University of Washington, published 2024)

Columns and labels:
C3D3_AR113_Axle (D3-C3) = biological target: T1, C3D3_AR113_Axle (D3-C3); test: negative stain EM after pH-controlled, oxidoreductive assembly of axle and ring
T1 construct: De novo designed D3 homohexameric axle, a surface redesign of 1552_1na0C3_int2_11; For biolayer interferometry the axle was Avi-tagged and enzymatically biotinylated; also called D3 axle; designed D3 axle
T1 chain: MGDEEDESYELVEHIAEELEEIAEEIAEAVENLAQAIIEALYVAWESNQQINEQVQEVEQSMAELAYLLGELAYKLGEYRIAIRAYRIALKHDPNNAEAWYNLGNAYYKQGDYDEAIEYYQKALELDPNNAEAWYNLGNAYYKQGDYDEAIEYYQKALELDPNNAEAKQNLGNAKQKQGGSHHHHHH

54.7_112_Axle = biological target: T2, 54.7_112_Axle; test: biolayer interferometry, biotinylated axle on streptavidin tips, ring in solution
T2 construct: Axle of a C3-C3 design (C3 homotrimer); It carries no His tag in the bicistronic pull-down; For biolayer interferometry it was Avi-tagged and biotinylated; also called C3-C3 design 54.7.112
T2 chain: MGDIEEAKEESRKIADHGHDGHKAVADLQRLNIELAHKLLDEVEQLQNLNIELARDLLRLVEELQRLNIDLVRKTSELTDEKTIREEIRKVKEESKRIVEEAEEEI
Protocol: (§1) FIG. 13. Biolayer interferometry assays measuring in vitro assembly of ring and axle parts into a full rotary system. For each 6 designs, the equilibrium binding curves from biolayer interferometry binding assays is shown on the left and the corresponding Biolayer interferometry kinetic binding traces shown on the right. Biotinylated axles were immobilized on the tip and the binding in a solution of fre rings was measured. For both D3-C5 and D3-C3, a fresh ring solution was prepared by buffer exchange from citrate buffer to TBS with reducing agent, and immediately used for binding assays.
Biolayer interferometry experiments were performed on an OctetRED96 BLI system (ForteBio, Menlo Park, CA). Enzymatic protein biotinylation was performed on SEC purified Avi-tagged proteins prior to the assay. The BirA500 (Avidity, LLC) biotinylation kit was used to biotinylate protein from the IMAC elution according to the manufacturer protocol. Reactions were incubated at 4C overnight and purified using size exclusion chromatography on a Superdex™ 6 10/300 Increase GL (GE Healthcare) in TBS buffer (25 mM Tris pH 8.0, 25 mM NaCl). Streptavidin coated biosensors were equilibrated for 10 minutes in Octet buffer (10 mM HEPES pH 7.4, 25 mM NaCl, 3 mM EDTA, 0.05% Surfactant P20) supplemented with 1 mg/ml Bovine Serum Albumin (SigmaAldrich). […]

119RC4_20_Axle (D8-C4) = biological target: T3, 119RC4_20_Axle (D8-C4); test: stoichiometric mixing of separately purified axle and ring, then SEC, SAXS and EM
T3 construct: D8 homo-16-meric axle; two C4 rings assemble around one axle; also called D8 axle; D8A_1615
T3 chain: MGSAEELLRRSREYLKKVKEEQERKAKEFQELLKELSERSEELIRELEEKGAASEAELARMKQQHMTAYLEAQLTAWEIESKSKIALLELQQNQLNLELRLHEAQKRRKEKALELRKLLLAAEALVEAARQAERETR

C5C3_3250_Axle (C5-C3) = biological target: T4, C5C3_3250_Axle (C5-C3); test: SEC, SAXS, biolayer interferometry binding kinetics and negative stain EM
T4 construct: C5 homopentameric axle; For biolayer interferometry it was Avi-tagged and biotinylated; also called C5 axle
T4 chain: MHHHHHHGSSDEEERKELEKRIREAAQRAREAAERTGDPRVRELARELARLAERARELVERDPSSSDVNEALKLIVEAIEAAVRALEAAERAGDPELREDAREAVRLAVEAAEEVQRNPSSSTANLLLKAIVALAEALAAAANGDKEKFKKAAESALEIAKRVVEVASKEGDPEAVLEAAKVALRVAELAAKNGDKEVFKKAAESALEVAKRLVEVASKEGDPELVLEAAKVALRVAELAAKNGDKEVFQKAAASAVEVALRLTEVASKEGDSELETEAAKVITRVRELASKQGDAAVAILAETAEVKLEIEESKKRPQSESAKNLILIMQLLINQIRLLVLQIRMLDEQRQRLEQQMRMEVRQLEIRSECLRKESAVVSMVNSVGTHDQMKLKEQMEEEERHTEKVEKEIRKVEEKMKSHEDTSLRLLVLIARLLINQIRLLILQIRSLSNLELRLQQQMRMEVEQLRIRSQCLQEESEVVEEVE
Protocol: as §1
(§2) Protein samples were purified by SEC in 25 mM Tris pH 8.0, 25 mM NaCl and 1% glycerol; elution fractions corresponding to the protein were further concentrated using 3K protein concentrators (Millipore Sigma) and the flow-through was used as blank for buffer subtraction. SAXS Scattering measurements were performed at the SIBYLS 12.3.1 beamline at the Advanced Light Source. […] Collected data were processed using the SAXS FrameSlice™ online server and analysed using the ScÅtter software package(23). […]

[1] = biological target: T5, C8D8_6_49_119RC4_20_Axle (C8-C4); test: as above
T5 construct: C8 homooctameric axle, the circular permutation version of the D8 axle; For biolayer interferometry it was Avi-tagged and biotinylated; also called C8 axle
T5 chain: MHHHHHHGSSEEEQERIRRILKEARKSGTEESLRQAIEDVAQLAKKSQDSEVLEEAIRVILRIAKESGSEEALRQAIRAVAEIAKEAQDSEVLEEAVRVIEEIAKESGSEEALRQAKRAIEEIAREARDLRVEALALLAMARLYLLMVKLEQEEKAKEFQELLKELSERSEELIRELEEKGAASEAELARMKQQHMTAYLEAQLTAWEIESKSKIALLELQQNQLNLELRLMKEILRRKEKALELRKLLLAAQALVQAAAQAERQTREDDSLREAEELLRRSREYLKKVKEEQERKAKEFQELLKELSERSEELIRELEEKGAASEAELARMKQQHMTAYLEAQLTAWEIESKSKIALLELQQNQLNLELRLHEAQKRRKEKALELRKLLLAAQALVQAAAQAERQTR
Protocol: as §1, §2

B1: C3D3_AR113_Ring (D3-C3) (designed binder)
chain: MGQRSGHARQLKRHLHRLRRHLERLDKHAKHLRQILSERPQDERVKDSIDLLEESVRIVKISIKIFEASVRALLWAINKEAEELAKSPDPHDLHRAVRLARAVVQADPGSNLSKKALEIILRAAAELAKLPDPNALAAAARAASQVQREQPGSNLAKAAQEIMRQASRAAEEAARRAKETLEKAEKRGDPKTALQAVRTVVKVAAALNQIATMAGSEEAQERAARVAAEAAELALRVFELAEKQGDPHVARRARKLIQTVLQILLRILTQILETATKIIEEANKLLRKHRRSSRKDPKLVETHVELVKRHERLVRQHLKIALMHALAVLELAFPDAEAAKLASKAAKEAEELCKQSTDERLCDLLAELAALLIELAARYPDSEAAKLALKAALEAIELCKQSTDEELCEELVKLAQKLIELAKRYPDSEEAKRALKEAKELIEQCKESTDEDECRELVKRAEELIREAKEGSHHHHHH
notes: De novo designed C3 homotrimeric ring with disulfides and histidine networks at the subunit interfaces; also called C3 ring; ring of the D3-C3 rotor
C3D3_AR113_Axle (D3-C3)
  binding result: binds

B2: 54.7_112_Ring (designed binder)
chain: MGVEELLLLARAAHHSGTTVEEAYKLALKLGISVKELLLLARAAHNSGTTVEEAYKLALKLGISVEELLLLAKAAHYSGTTVEEAYKLALKLGISVRELLLLAKAAHFSGTTVEEAYKLALKLGISVEELLLLARAAHHSGTTVEEAYKLALKLGISVKELLLLARAAHNSGTTVEEAYKLALKLGISVEELLLLAKAAHYSGTTVEEAYKLALKLGISVRELLLLAKAAHFSGTTVEEAYKLALKLGISVEELLLLARAAHHSGTTVEEAYKLALKLGISVKELLLLARAAHNSGTTVEEAYKLALKLGISVEELLLLAKAAHYSGTTVEEAYKLALKLGISVRELLLLAKAAHFSGTTVEEAYKLALKLGISGSHHHHHH
notes: also called C3-C3 design 54.7.112
54.7_112_Axle
  binding result: binds

B3: 119RC4_20_Ring (D8-C4) (designed binder)
chain: MGCDAIQAAAALGEAGISSNEILELLAAAAELGLDPDAIQAAAQLGEAGISSEEILELLRAAHELGLDPDAIAAAADLGQAGISSEEILELLRAAHELGLDPDAIQAAAALGEAGISSEEILELLRAAHELGLDPDAIQAAAQLGEAGISSEEILELLRAAHELGLDPDCIAAAADLGQAGISSSEITALLLAAAAIELAKRADDKDVREIVRDALELASRSTNDEVIRLALEAAVLAARSTDSDVLEIVKDALELAKQSTNEEVIKLALKAAVLAAKSTDEEVLEEVKEALRRAKESTDEEEIKEELRKAVEEAEGSHHHHHH
notes: C4 ring of four subunits, each fused to DHR20; two rings sit on each D8 axle; also called C4 ring
119RC4_20_Axle (D8-C4)
  binding result: binds

B4: C5C3_3250_Ring (C5-C3) (designed binder)
chain: MGNRSLHANKLKTHLENLREHLKRLDEHAKQLRDILSEHPHDERVKDSIDLLEESVRIVKISIKIFEASVRALLWAINKEAEELAKSPDPADLERAVRLAAAVVRADPGSNLSKKALEIILRAAAELAKLPDPKALAAAAEAASRVQREQPGSNLAKAAQEIMRQASRAAEEAARRAKETLEKAEKDGDPRTALQAVMTVVEVAKALNIIATMAGSEEAQERAARVAAEAAELALRVFELAEKQGDPEVAHNARKLIEIVLHILLQILTQILETATKIIREANELLEKHRRSHHHDPKLVETHVELVKRHERLVRQHLKIALMHALAVLELAFPDAEAAKLASKAAKEAEELCKQSTDERLCDLLAELAALLIELAARYPDSEAAKLALKAALEAIELCKQSTDEELCEELVKLAQKLIELAKRYPDSEEAKRALKEAKELIEQCKESTDEDECRELVKRAEELIREAKEGSHHHHHH
notes: C3 homotrimeric ring; also called C3 ring
C5C3_3250_Axle (C5-C3)
  binding result: binds

B5: C8D8_6_49_119RC4_20_Ring (C8-C4) (designed binder)
chain: MGCDAIQAAAALGEAGISSNEILELLAAAAELGLDPDAIQAAAQLGEAGISSEEILELLRAAHELGLDPDAIAAAADLGQAGISSEEILELLRAAHELGLDPDAIQAAAALGEAGISSEEILELLRAAHELGLDPDAIQAAAQLGEAGISSEEILELLRAAHELGLDPDCIAAAADLGQAGISSSEITALLLAAAAIELAKRADDKDVREIVRDALELASRSTNDEVIRLALEAAVLAARSTDSDVLEIVKDALELAKQSTNEEVIKLALKAAVLAAKSTDEEVLEEVKEALRRAKESTDEEEIKEELRKAVEEAEGSHHHHHH
notes: C4 ring of four subunits; also called C4 ring
[1]
  binding result: binds
